Assay results: publication PMC5838229

Target: Flag-DNAJC5 (secreted) (UniProt Q9H3Z4)
Assay: co-IP; conditioned medium of cells expressing Flag-DNAJC5 and HA-GFP1-10; Flag beads against control Sepharose beads; precipitated and unbound fractions analysed by immunoblotting

Sequence of UniProt Q9H3Z4 (Q9H3Z4 whole entry): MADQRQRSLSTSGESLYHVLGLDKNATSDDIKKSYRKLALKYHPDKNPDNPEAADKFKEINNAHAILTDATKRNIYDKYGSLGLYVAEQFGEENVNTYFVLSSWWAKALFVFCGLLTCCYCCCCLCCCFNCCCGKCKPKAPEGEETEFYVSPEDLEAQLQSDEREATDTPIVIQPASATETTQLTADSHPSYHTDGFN

- percent co-depleted with Flag-DNAJC5: > 60%
Substance: HA-GFP1-10 (secreted) (domain or fragment)
